The source of these data is paper PMC12858348, “Structural basis underlying the autoinhibition of the formin FHOD1 and its phosphorylation-dependent activation” (The Journal of Biological Chemistry, 2025).

The experiment addresses T1, His-tagged FHOD1-N3 (1–360) (human, UniProt Q9Y613 1-360).
T1 construct: human FHOD1, residues 1-360 (GBD and FH3 domains), from human FHOD1 cDNA in pProEX-HTb; also called FHOD1-N-WT; N-terminal region
T1 sequence (looked up): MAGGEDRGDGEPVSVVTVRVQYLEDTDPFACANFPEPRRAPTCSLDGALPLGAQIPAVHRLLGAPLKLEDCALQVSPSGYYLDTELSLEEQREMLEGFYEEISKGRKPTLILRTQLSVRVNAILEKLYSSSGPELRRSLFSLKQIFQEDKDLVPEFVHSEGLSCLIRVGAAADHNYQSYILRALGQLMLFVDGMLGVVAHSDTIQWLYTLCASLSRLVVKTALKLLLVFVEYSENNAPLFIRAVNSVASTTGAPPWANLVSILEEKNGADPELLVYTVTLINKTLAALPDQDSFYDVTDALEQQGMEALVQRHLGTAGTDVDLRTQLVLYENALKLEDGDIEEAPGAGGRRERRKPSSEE
The experiment can be described thus: pull-down; 20 μg GST fusion protein (GST-DAD 1.25 μM) and 20 μg His-tagged protein (His-FHOD1-N3 1.0 μM) in 500 μl PBS pH 7.4 with 0.1% Triton X-100; glutathione-Sepharose 4B, 1 h at 4 °C; three washes; eluted with 10 mM glutathione; SDS-PAGE, CBB staining, densitometry. To be noted: both partners purified.

B1: GST-fused FHOD1–DAD (1081–1145) (domain or fragment, human, UniProt Q9Y613 1081-1145, looked up)
chain: MPTVGPSTASPEEPPGSSLPSDTSDEIMDLLVQSVTKSSPRALAARERKRSRGNRKSLRRTLKSG
notes: human FHOD1, residues 1081-1145 (diaphanous autoregulatory domain), in pGEX-6P; also called DAD-WT; GST-DAD; source: E. coli BL21, purified (glutathione-Sepharose-4B)
In the case of B1, the binding result is “binds”.

B2: GST-fused FHOD1–DAD (1081–1145) M1108A (domain or fragment, human, UniProt Q9Y613 1081-1145, looked up)
chain: MPTVGPSTASPEEPPGSSLPSDTSDEIADLLVQSVTKSSPRALAARERKRSRGNRKSLRRTLKSG
notes: human FHOD1, residues 1081-1145 (DAD), M1108A in the core motif; also called DAD-M1108A; source: E. coli BL21, purified (glutathione-Sepharose-4B)
Regarding B2, the binding result is on record as “binds”.
